# Assay results: US20220153819A1 (Regeneron, published 2022)
# Values joined by “and” are separate entries in the source; they are usually repeats but may differ in a detail not shown here. Equal entries are not always repeated. Where two headings read alike, the source gives them in different places.
# T1: hGITR.mmh (human)
# T1 chain: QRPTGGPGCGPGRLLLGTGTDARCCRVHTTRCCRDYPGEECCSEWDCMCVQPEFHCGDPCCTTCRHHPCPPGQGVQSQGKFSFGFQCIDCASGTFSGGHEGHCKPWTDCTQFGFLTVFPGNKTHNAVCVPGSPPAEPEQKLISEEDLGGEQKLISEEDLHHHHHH
# T2: human GITR on Jurkat/hGITR/hCD20 cells (human, UniProt Q9Y5U5 26-241)
# T2 sequence (looked up): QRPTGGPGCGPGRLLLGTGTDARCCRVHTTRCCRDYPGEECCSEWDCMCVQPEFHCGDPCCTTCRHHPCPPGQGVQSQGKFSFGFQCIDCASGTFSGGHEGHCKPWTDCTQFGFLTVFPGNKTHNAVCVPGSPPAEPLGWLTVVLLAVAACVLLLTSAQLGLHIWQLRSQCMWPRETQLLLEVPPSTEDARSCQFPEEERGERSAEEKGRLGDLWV
# T3: CD20 on Raji cells (human, UniProt P11836 1-297)
# T3 sequence (looked up): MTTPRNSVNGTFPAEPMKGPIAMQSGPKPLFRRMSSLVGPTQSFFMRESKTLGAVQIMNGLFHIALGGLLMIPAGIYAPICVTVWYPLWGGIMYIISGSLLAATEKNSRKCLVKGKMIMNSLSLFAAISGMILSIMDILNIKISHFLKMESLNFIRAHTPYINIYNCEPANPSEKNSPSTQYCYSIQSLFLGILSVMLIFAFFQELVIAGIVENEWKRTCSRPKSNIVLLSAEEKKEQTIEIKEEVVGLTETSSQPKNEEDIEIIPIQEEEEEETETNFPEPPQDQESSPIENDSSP
# T4: IsdA.6×(His) (Staphylococcus aureus, UniProt A6QG31 47-316)
# T4 sequence: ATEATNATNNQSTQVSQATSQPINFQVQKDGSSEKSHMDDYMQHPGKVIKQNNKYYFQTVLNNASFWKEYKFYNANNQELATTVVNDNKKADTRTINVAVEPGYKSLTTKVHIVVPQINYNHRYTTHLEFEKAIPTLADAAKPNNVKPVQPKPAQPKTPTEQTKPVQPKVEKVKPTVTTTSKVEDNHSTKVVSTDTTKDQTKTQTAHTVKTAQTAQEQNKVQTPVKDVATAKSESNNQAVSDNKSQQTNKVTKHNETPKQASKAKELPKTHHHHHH
# B1: mAb11829, parental anti-HA bivalent antibody (antibody, V domains shown)
# VH: QVHLVQSGPEVKKPGSSVKVSCKASGVTFISHAISWVRQAPGQGLEWVGGIIAIFGTTNYAQKFQGRVTVTTDKSTNTVYMELSRLRSEDTAIYYCARGETYYEGNFDFWGQGTLVTVSS
# VL: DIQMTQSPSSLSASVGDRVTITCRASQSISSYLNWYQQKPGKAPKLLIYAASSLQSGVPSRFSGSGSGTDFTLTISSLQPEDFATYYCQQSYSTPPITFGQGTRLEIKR
# notes: also called Flu A, group 1 HA; parental HA bivalent antibody
# B2: mAb27250, one-arm parental HA antibody (antibody, V domains shown)
# VH: B1 VH
# VL: not shown
# notes: also called Flu A, group 1, one arm
# B3: REGN6093, anti-Influenza HA x anti-C1q bispecific antibody (bispecific antibody, V domains shown)
# VH 1: B1 VH
# VH 2: EVQLVESGGGVVQPGGSLRLSCAASGFSLDDYAMHWVRQTPGKGLEWVSLISGDGSRTSYADSVKGRFTISRDNSKNSLYLKMNSLRTEDTALYYCTKDPHNSNWFDPWGQGTLVTVSS
# VL: not shown
# notes: also called FluA group 1 x C1q bispecific; anti-HA x anti-C1q
# B4: REGN6545, anti-GITR x anti-C1q bispecific antibody (bispecific antibody, V domains shown)
# VH 1: QVQLQESGPGLVKPSETLSLTCIVSGGSISGYFWNWIRQPPGKGLEWIGYIYYSGTTIYNPSLKSRFTISLDTSKNQFSLKLTSVTAADTAVYYCARESYNPSPRYFDHWGQGTLVTVSS
# VH 2: B3 VH 2
# VL: not shown
# B5: REGN5409, anti-Psl x anti-C1q scFv bispecific antibody (bispecific antibody, human IgG1, lambda)
# heavy: not shown
# light: SSELTQDPAVSVALGQTVRITCQGDSLRSYYASWYQQKPGQAPVLVIYGKNNRPSGIPDRFSGSSSGNTASLTITGAQAEDEADYYCNSRDSSGNHVVFGGGTKLTVLGQPKAAPSVTLFPPSSEELQANKATLVCLISDFYPGAVTVAWKADSSPVKAGVETTTPSKQSNNKYAASSYLSLTPEQWKSHRSYSCQVTHEGSTVEKTVAPTECS
# scFv: not shown
# B6: REGN5177, anti-CD20 x anti-C1q bispecific antibody (bispecific antibody, V domains shown)
# VH 1: QVHLVESGGGVVQPGRSLRLSCSVSGLTFNSYGMHWVRQAPGKGLEWVTMISYDGSDKYYLDSVKGRFTISRDNSKNILYLQINSLRPEDTAVYYCVNWDNWRGNFDYWGQGTLVTVSS
# VH 2: B3 VH 2
# VL: not shown
# B7: REGN5553, anti-IsdA x anti-C1q bispecific antibody (bispecific antibody, V domains shown)
# VH 1: EVQLVESGGGLVQPGRSLRVSCAASGFTFDDYAMHWVRQIPGKGLEWVSGIRWNSDTIGYADSVKGRFTISRDNAKNFLYLQMNSLRTEDTALYYCVKDMRVRGIIMYGMDVWGQGTTVTVSS
# VH 2: B3 VH 2
# VL: not shown
# notes: also called bsC1q × IsdA; bs hC1q × IsdA
# B8: mAb14303, anti-CD20 parental bivalent hIgG1 antibody (antibody, V domains shown)
# VH: B6 VH 1
# VL: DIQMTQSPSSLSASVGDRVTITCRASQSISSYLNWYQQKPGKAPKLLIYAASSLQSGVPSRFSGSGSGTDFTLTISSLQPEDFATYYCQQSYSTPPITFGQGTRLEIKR
# B9: Rituximab (antibody, V domains shown)
# VH: QVQLQQPGAELVKPGASVKMSCKASGYTFTSYNMHWVKQTPGRGLEWIGAIYPGNGDTSYNQKFKGKATLTADKSSSTAYMQLSSLTSEDSAVYYCARSTYYGGDWYFNVWGAGTTVTVSA
# VL: QIVLSQSPAILSASPGEKVTMTCRASSSVSYIHWFQQKPGSSPKPWIYATSNLASGVPVRFSGSGSGTSYSLTISRVEAEDAATYYCQQWTSNPPTFGGGTKLEIK
# B10: REGN5372, anti-GITR bivalent hIgG1 antibody (antibody, V domains shown)
# VH: B4 VH 1
# VL: not shown
# B11: parental bivalent anti-IsdB antibody (antibody, V domains shown)
# VH: EVQLVESGGGLVQPGRSLRLSCTTSGFTFDDYAMHWVRQVPGQGLEWVAGLSWNSDTIGYADSVKGRFTISRDNAKNSLYLQMKSLKAEDTALYYCTKDFYHSLNNWNYYYFDYWGQGTLVTVSS
# VL: not shown
# notes: also called anti-IsdB bival; bivalent IsdB antibody
# B12: REGN5536, anti-PNAG x anti-C1q scFv bispecific antibody (bispecific antibody, human IgG1, lambda)
# heavy: not shown
# light: QLVLTQSPSASASLGASVKLTCTLSSGHSNYAIAWHQQQPGKGPRYLMKVNRDGSHIRGDGIPDRFSGSTSGAERYLTISSLQSEDEADYYCQTWGAGIRVFGGGTKLTVLGQPKAAPSVTLFPPSSEELQANKATLVCLISDFYPGAVTVAWKADSSPVKAGVETTTPSKQSNNKYAASSYLSLTPEQWKSHRSYSCQVTHEGSTVEKTVAPTECS
# scFv: not shown
# Assays:
# [1] = biological target: T5, hemagglutinin (HA) on A/Puerto Rico/08/1934 (H1N1)-infected MDCK cells (Influenza A virus A/Puerto Rico/08/1934 …, UniProt P03452 18-565); test: cell-based or functional assay
# [2] = biological target: T5, hemagglutinin (HA) on A/Puerto …; test: cell ELISA on fixed A/Puerto Rico/08/1934 (H1N1)-infected MDCK cells
# [3] = biological target: T6, biotinylated human C1q (human, UniProt P02745 23-245; P02746 28-253; P02747 29-245)
# T6 construct: also called Bt hC1q; bt-hC1q
# [4] = biological target: T6, biotinylated human C1q; remark: listed apart in the source
# [5] = biological target: T7, human complement component 1q (C1q) (human, UniProt P02745 23-245; P02746 28-253; P02747 29-245); test: SPR (Biacore T200), 25C; bsAb captured via anti-human F(ab')2, hC1q injected
# T7 construct: also called hC1q; human C1q (Quidel)
# [6] = biological target: T7, human complement component 1q (C1q); test: SPR (Biacore T200), 37C; bsAb captured via anti-human F(ab')2, hC1q injected
# [7] = biological target: T7, human complement component 1q (C1q)
# [8] = biological target: T7, human complement component 1q (C1q); remark: listed apart in the source
# [9] = biological target: T1, hGITR.mmh
# [10] = biological target: T6, biotinylated human C1q
# [11] = biological target: T6, biotinylated human C1q; remark: listed apart in the source
# [12] = biological target: T1, hGITR.mmh
# [13] = biological target: T1, hGITR.mmh
# [14] = biological target: T2, human GITR on Jurkat/hGITR/hCD20 cells
# [15] = biological target: T3, CD20 on Raji cells
# [16] = biological target: T3, CD20 on Raji cells; remark: listed apart in the source
# [17] = biological target: T7, human complement component 1q (C1q); remark: listed apart in the source
# [18] = biological target: T4, IsdA.6×(His); test: SPR (Biacore), 37C; IsdA.6xHis captured, bsAb injected
# [19] = biological target: IsdB.6×(His) (Staphylococcus aureus, UniProt A6QG30 41-613); test: SPR (Biacore T200), 37C; antibody captured, IsdB.6xHis injected
# T7 sequence (P02745 23-245, chain 1 of 3): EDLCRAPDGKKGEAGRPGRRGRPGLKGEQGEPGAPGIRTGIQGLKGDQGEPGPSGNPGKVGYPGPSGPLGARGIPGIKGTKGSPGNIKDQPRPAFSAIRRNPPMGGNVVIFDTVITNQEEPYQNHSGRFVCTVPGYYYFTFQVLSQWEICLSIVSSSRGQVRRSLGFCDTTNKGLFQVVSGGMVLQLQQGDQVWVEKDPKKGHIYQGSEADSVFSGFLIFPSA
# T7 sequence (P02746 28-253, chain 2 of 3): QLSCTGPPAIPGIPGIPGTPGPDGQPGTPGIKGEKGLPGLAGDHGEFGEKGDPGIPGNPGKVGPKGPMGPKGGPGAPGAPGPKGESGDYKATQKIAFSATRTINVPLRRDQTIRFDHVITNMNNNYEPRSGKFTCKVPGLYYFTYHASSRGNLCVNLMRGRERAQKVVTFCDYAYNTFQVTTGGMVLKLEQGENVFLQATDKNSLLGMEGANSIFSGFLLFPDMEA
# T7 sequence (P02747 29-245, chain 3 of 3): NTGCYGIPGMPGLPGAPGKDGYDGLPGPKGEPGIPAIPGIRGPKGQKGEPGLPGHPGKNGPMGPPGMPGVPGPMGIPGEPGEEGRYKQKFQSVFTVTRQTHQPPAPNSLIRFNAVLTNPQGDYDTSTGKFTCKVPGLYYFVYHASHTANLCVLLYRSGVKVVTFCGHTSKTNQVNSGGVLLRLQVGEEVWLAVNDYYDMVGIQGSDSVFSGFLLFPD
# T6 sequence (P02745 23-245, chain 1 of 3): as the sequence (P02745 23-245, chain 1 of 3) above
# T6 sequence (P02746 28-253, chain 2 of 3): as the sequence (P02746 28-253, chain 2 of 3) above
# T6 sequence (P02747 29-245, chain 3 of 3): as the sequence (P02747 29-245, chain 3 of 3) above
binder,measurement,setting,value
B1,CDC EC50 (H1N1-infected MDCK cells),[1],20.8 nM
same,Maximum percent specific lysis (CDC of H1N1-infected MDCK cells),[1],35.8%
same,EC50,[2],1.46 nM
same,Maximum binding (RLUs),[2],788000 RLU
B2,CDC EC50 (H1N1-infected MDCK cells),[1],20.7 nM
same,Maximum percent specific lysis (CDC of H1N1-infected MDCK cells),[1],39%
same,EC50,[2],0.648 nM
same,Maximum binding (RLUs),[2],719000 RLU
B3,CDC EC50 (H1N1-infected MDCK cells),[1],10.5 nM
same,Maximum percent specific lysis (CDC of H1N1-infected MDCK cells),[1],30%
same,Kd,[3],327 nM
same,koff,[3],0.0309 s⁻¹
same,kon,[3],94600 M⁻¹ s⁻¹
same,t1/2,[3],0.37 min
same,Kd,[4],516 nM
same,koff,[4],0.0937 s⁻¹
same,kon,[4],182000 M⁻¹ s⁻¹
same,t1/2,[4],0.12 min
same,EC50,[2],1.84 nM
same,Maximum binding (RLUs),[2],849000 RLU
same,Kd,[5],0.451 nM
same,koff,[5],0.00216 s⁻¹
same,kon,[5],4.8e+06 M⁻¹ s⁻¹
same,t1/2,[5],5.3 min
same,Kd,[6],1.11 nM
same,koff,[6],0.00401 s⁻¹
same,kon,[6],3.61e+06 M⁻¹ s⁻¹
same,t1/2,[6],2.9 min
B4,Kd,[7],0.528 nM
same,koff,[7],0.00162 s⁻¹
same,kon,[7],3.07e+06 M⁻¹ s⁻¹
same,Kd,[8],1.74 nM
same,koff,[8],0.00582 s⁻¹
same,kon,[8],3.34e+06 M⁻¹ s⁻¹
same,kon,[9],330000 M⁻¹ s⁻¹ and 274000 M⁻¹ s⁻¹
same,Kd,[10],1860 nM
same,koff,[10],0.449 s⁻¹
same,kon,[10],241000 M⁻¹ s⁻¹
same,Kd,[11],3330 nM
same,koff,[11],0.658 s⁻¹
same,kon,[11],198000 M⁻¹ s⁻¹
same,Kd,[12],3.3 nM
same,koff,[12],0.00229 s⁻¹
same,kon,[12],693000 M⁻¹ s⁻¹
same,Kd,[13],7.38 nM
same,koff,[13],0.00795 s⁻¹
same,kon,[13],1.08e+06 M⁻¹ s⁻¹
same,EC50,[14],31 nM
B5,Kd,[7],0.747 nM
same,koff,[7],0.00262 s⁻¹
same,kon,[7],3.51e+06 M⁻¹ s⁻¹
same,Kd,[8],2.41 nM
same,koff,[8],0.0116 s⁻¹
same,kon,[8],4.8e+06 M⁻¹ s⁻¹
same,Kd,[10],431 nM
same,koff,[10],0.0276 s⁻¹
same,kon,[10],64000 M⁻¹ s⁻¹
same,Kd,[11],343 nM
same,koff,[11],0.0149 s⁻¹
same,kon,[11],43500 M⁻¹ s⁻¹
B6,Kd,[7],0.688 nM
same,koff,[7],0.00224 s⁻¹
same,kon,[7],3.26e+06 M⁻¹ s⁻¹
same,Kd,[8],0.481 nM
same,koff,[8],0.00499 s⁻¹
same,kon,[8],1.04e+07 M⁻¹ s⁻¹
same,Kd,[10],436 nM
same,koff,[10],0.0442 s⁻¹
same,kon,[10],101000 M⁻¹ s⁻¹
same,EC50,[15],35.6 nM
same,EC50,[16],35.7 nM
B7,Kd,[17],1.3 nM
same,koff,[17],0.00469 s⁻¹
same,kon,[17],3.62e+06 M⁻¹ s⁻¹
same,Kd,[18],3.62 nM
same,T1/2,[18],11.8 min
same,koff,[18],0.000977 s⁻¹
same,kon,[18],270000 M⁻¹ s⁻¹
B8,EC50,[15],6.03 nM
same,EC50,[16],6.03 nM
B9,EC50,[15],3.14 nM
same,EC50,[16],3.14 nM
B10,EC50,[14],3.07 nM
B11,Kd,[19],1.75 nM
same,T1/2,[19],18 min
same,koff,[19],0.00064 s⁻¹
same,kon,[19],365000 M⁻¹ s⁻¹
B12,Kd,[17],0.632 nM
same,koff,[17],0.0102 s⁻¹
same,kon,[17],1.61e+07 M⁻¹ s⁻¹
